B1: AGC0715: AGC0700 conjugated to the water soluble chelator AGC0015 (12) (conjugate)
heavy: QVQLVQSGAEVKKPGSSVKVSCKASGYTFTDYNMHWVRQAPGQGLEWIGYIYPYNGGTGYNQKFKSKATITADESTNTAYMELSSLRSEDTAVYYCARGRPAMDYWGQGTLVTVSSASTKGPSVFPLAPSSKSTSGGTAALGCLVKDYFPEPVTVSWNSGALTSGVHTFPAVLQSSGLYSLSSVVTVPSSSLGTQTYICNVNHKPSNTKVDKKVEPKSCDKTHTCPPCPAPELLGGPSVFLFPPKPKDTLMISRTPEVTCVVVDVSHEDPEVKFNWYVDGVEVHNAKTKPREEQYNSTYRVVSVLTVLHQDWLNGKEYKCKVSNKALPAPIEKTISKAKGQPREPQVYTLPPSRDELTKNQVSLTCLVKGFYPSDIAVEWESNGGQPENNYKTTPPVLDSDGSFFLYSKLTVDKSRWQQGNVFSCSVMHEALHNHYTQKSLSLSPG
light: DIQMTQSPSSLSASVGDRVTITCRASESVDNYGISFMNWFQQKPGKAPKLLIYAASNQGSGVPSRFSGSGSGTDFTLTISSLQPDDFATYYCQQSKEVPWTFGQGTKVEIKRTVAAPSVFIFPPSDEQLKSGTASVVCLLNNFYPREAKVQWKVDNALQSGNSQESVTEQDSKDSTYSLSSTLTLSKADYEKHKVYACEVTHQGLSSPVTKSFNRGEC
modifications: chelator AGC0015 (12) conjugated; site not stated; none, one or two chelators on a chain
B2: AGC0715-Th-227: antibody-conjugate AGC0715 chelated with Th-227 (conjugate)
heavy: QVQLVQSGAEVKKPGSSVKVSCKASGYTFTDYNMHWVRQAPGQGLEWIGYIYPYNGGTGYNQKFKSKATITADESTNTAYMELSSLRSEDTAVYYCARGRPAMDYWGQGTLVTVSSASTKGPSVFPLAPSSKSTSGGTAALGCLVKDYFPEPVTVSWNSGALTSGVHTFPAVLQSSGLYSLSSVVTVPSSSLGTQTYICNVNHKPSNTKVDKKVEPKSCDKTHTCPPCPAPELLGGPSVFLFPPKPKDTLMISRTPEVTCVVVDVSHEDPEVKFNWYVDGVEVHNAKTKPREEQYNSTYRVVSVLTVLHQDWLNGKEYKCKVSNKALPAPIEKTISKAKGQPREPQVYTLPPSRDELTKNQVSLTCLVKGFYPSDIAVEWESNGGQPENNYKTTPPVLDSDGSFFLYSKLTVDKSRWQQGNVFSCSVMHEALHNHYTQKSLSLSPG
light: DIQMTQSPSSLSASVGDRVTITCRASESVDNYGISFMNWFQQKPGKAPKLLIYAASNQGSGVPSRFSGSGSGTDFTLTISSLQPDDFATYYCQQSKEVPWTFGQGTKVEIKRTVAAPSVFIFPPSDEQLKSGTASVVCLLNNFYPREAKVQWKVDNALQSGNSQESVTEQDSKDSTYSLSSTLTLSKADYEKHKVYACEVTHQGLSSPVTKSFNRGEC
modifications: chelator AGC0015 (12) conjugated, chelating Th-227; site not stated

Experiments:
[1] = biological target: T1, CD33-positive HL-60 cells (Homo sapiens, UniProt P20138); assay: Binding to CD33-positive HL-60 cells by flow cytometry; settings: compared with AGC0700
T1 construct: endogenous in cells; host or cells: HL-60 cells
T1 sequence (P20138 18-364): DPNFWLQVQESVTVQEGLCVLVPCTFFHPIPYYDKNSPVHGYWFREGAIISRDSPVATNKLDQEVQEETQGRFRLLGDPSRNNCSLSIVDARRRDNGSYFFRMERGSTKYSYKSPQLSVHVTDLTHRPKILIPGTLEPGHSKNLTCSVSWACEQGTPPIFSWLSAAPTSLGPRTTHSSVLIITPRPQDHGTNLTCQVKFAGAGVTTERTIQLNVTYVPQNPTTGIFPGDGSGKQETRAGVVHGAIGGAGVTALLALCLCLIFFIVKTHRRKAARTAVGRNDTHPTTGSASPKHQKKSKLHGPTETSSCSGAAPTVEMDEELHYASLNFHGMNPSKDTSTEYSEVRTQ
Experimental: Binding to CD33-positive HL-60 cells were studied by flow cytometry. The determination of EC50 based on the plotted curve gives an approximate value for the affinity. The commercially available mouse anti human CD33 (BD Pharmingen; #555450, 1 mg/mL) was used as a reference antibody for assessment of the affinity, including a setup with a 50:50 mixture with the mAb to be analyzed. This assay was also used to confirm that target binding affinity was not negatively affected by conjugation with the chelator.
HL-60 cells were grown in Iscove's Modified Dulbecco's Medium (IMDM; Invitrogen; #12440-046) in the presence of 20% of fetal bovine serum and penicillin/streptomycin. Approximately 20 mL cell culture was harvested by centrifugation at 4° C. for 5 min at 300 g. […] Subsequently, 20 μL of the preparation of resuspended cells was diluted 1:500 in Coulter Isoton II Diluent, and counted using a Beckman Coulter Z2 instrument (Beckman Coulter; CA, USA). […]
The mAb or conjugate to be analyzed was prepared fresh form frozen stock by shifting the storage buffer to PBS, kept at 4° C., and used within a few days after preparation. […] All samples were analysed in 96-well round or conical bottom plates. Fluorescent signals were recorded on a Beckham Coulter Cell lab Quant SC flow cytometer (Beckman Coulter; CA, USA). […]

[2] = tested on: CD33 positive HL-60 cells; assay: Th-227-induced in vitro cell cytotoxicity (CellTiter-Glo ATP viability); format: cell-based, human; settings: 3 nM or 0.3 nM, specific activity 44 kBq/μg, followed to day 7
Experimental: In vitro cell cytotoxicity was investigated in CD33 positive HL-60 cells. AGC0715 and the control trastuzumab conjugated AGC0015 were used to chelate Th-227 to a specific activity of 44 kBq/μg. HL-60 cells were grown at 37° C. with 5% CO2, and split 1:5 three times a week. The day before the assay the culture medium (Iscove's Modified Dulbecco's Medium (IMDM) with 20% FBS and 1% Penicillin/Streptomycin) was replaced by new medium and the volume adjusted to give 400 000 cells per mL.
About, 1 600 000 cell (4 mL) were added to each well in a 6 well plate. The plate was incubated until next day for addition of labelled mAb, or culture medium. After adding labelled mAb, or culture medium, the plate was incubated for 4 additional hours. In one experiment AGC0715 or trastuzumab-AGC0015 was added to each well to a final concentration of 3 nM. In another experiment the final concentration was 0.3 nM.
Following incubation, the cells were washed twice in culture medium, and the ATP in the supernatant and in the pellet was measured. The cells were then split 1:2 and incubated in culture medium at 37° C. with 5% CO2. The same procedure, but with only one wash, was repeated at days 2, 4, and 7.

| Molecule | binding affinity [1] | cellular toxicity (cell viability by ATP) [2] |
| --- | --- | --- |
| B1 | comparable to the non-conjugated AGC0700 | – |
| B2 | – | resulted in cellular toxicity |

Reference: patent US20150147272A1, “RADIO-PHARMACEUTICAL COMPLEXES” (Algeta ASA, priority 2012, published 2015)
